Numbering of substitutions follows the chain as printed.
Legend:
Assay in all cases: SPR, antibody captured, C2 as analyte;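 note: biacore at 37 °C, anti-C2 mAbs held by immobilised goat anti-human IgG, C2 alanine or serine mutants injected, double-referenced sensorgrams fitted to a 1:1 kinetic or steady-state model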
human C2 N424A = biological target: T1, human C2 N424A (human, UniProt P06681 21-752)
T1 sequence: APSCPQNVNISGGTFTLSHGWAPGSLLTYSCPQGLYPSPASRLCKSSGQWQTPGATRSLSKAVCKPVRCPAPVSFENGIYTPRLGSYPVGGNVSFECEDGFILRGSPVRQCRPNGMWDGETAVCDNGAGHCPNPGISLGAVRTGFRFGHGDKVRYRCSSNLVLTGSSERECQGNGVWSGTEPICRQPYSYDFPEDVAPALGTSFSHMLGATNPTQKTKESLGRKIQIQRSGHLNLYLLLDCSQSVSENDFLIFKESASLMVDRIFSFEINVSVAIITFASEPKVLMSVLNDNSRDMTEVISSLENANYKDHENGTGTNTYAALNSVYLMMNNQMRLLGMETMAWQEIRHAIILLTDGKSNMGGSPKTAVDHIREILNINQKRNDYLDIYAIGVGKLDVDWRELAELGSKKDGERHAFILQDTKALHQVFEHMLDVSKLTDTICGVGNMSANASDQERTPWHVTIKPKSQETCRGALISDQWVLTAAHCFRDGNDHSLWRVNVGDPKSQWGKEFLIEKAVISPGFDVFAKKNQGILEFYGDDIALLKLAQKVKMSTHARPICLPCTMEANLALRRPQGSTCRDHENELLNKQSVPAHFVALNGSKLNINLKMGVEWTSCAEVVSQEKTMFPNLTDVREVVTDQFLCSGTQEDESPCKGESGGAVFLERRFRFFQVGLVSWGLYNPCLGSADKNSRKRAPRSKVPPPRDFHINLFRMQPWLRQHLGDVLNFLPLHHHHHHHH

human C2 I438A = biological target: T2, human C2 I438A (human, UniProt P06681 21-752)
T2 sequence: T1 sequence with A404N, I418A

human C2 N268A = biological target: T3, human C2 N268A (human, UniProt P06681 21-752)
T3 sequence: T1 sequence with N248A, A404N

human C2 L271A = biological target: T4, human C2 L271A (human, UniProt P06681 21-752)
T4 sequence: T1 sequence with L251A, A404N

B1: RF16-242 (antibody, human IgG4 S228P, lambda, V domains shown)
VH: EVQLLQSGAEVKKPGESLKISCKGSGYSFTSYWIGWVRQMPGKGLEWMGIIYPGDSDTRYSPSFQGQVTISADKSISTAYLQWSSLKASDTAMYYCARRGHYGDYFDYWGQGTLVTVSS
VL: SYELTQPPSVSVSPGQTARITCSGDALPKKYAYWYHQKSGQAPVLVIYEDRRRPSEIPERFSGSSSGTMATLTITGAQVEDEGVYFCYSRDRAGNQRVFGGGTQLTVLG
notes: pH-dependent anti-C2 antibody from a phage display library
Human C2 N424A
  Kd: 5.7 nM
Human C2 I438A
  Kd: 8.7 nM
Human C2 N268A
  Kd: 14.8 nM
Human C2 L271A
  Kd: 6.9 nM

— patent publication US20220332804A1 (CSL INNOVATION, published 2022)
